Where a chain is given by its changes, count along the chain named.

T1: human B7-H7 on the cell surface (human, UniProt Q9UM44 23-414)
T1 construct: whole, on cells; also called hB7-H7; hu B7-H7
T1 sequence (looked up): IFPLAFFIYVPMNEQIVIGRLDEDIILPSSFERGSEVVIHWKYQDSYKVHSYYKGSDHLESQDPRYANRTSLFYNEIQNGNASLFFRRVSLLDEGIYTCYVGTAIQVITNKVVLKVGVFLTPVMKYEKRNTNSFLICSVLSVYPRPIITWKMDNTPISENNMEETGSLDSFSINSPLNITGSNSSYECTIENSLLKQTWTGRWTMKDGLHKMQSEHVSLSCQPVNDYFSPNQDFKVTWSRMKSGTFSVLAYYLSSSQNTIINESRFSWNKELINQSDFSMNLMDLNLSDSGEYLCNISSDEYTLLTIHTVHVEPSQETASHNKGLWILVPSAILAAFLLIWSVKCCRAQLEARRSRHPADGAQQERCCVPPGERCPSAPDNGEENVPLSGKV

T2: human B7-H7 recombinant protein (human, UniProt Q9UM44 23-344)
T2 construct: also called human B7-H7 protein
T2 sequence (looked up): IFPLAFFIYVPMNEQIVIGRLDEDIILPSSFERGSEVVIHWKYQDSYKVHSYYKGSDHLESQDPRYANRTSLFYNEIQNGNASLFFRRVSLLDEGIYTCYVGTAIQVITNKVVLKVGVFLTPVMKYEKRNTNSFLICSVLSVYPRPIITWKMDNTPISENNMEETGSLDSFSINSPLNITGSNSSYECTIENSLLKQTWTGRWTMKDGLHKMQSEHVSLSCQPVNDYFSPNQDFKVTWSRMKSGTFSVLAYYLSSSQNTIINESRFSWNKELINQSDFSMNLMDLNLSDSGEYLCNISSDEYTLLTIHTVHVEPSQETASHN

T3: biotinylated human B7-H7 protein (Acro Biosystems, B77-H82F5) (human, UniProt Q9UM44 23-344, biotinylated)
T3 construct: Bought soluble protein; also called biotin-B7H7 protein
T3 sequence (looked up): T2 sequence (looked up)

B1: PR003264 (antibody, human IgG1, kappa)
heavy: not shown
light: DIQLTQSPSFLSASVGDRVTITCRASQGISSYFAWYQQKPGKAPKLLIYAASTLQSGVPSRFSGSGSGTEFTLTISSLQPEDFATYYCQHLNRYPWTFGQGTKVEIKRTVAAPSVFIFPPSDEQLKSGTASVVCLLNNFYPREAKVQWKVDNALQSGNSQESVTEQDSKDSTYSLSSTLTLSKADYEKHKVYACEVTHQGLSSPVTKSFNRGEC
notes: Human IgG1; also called 77G10D3
B2: PR004263 (antibody, human IgG1, kappa, L234A L235A)
heavy: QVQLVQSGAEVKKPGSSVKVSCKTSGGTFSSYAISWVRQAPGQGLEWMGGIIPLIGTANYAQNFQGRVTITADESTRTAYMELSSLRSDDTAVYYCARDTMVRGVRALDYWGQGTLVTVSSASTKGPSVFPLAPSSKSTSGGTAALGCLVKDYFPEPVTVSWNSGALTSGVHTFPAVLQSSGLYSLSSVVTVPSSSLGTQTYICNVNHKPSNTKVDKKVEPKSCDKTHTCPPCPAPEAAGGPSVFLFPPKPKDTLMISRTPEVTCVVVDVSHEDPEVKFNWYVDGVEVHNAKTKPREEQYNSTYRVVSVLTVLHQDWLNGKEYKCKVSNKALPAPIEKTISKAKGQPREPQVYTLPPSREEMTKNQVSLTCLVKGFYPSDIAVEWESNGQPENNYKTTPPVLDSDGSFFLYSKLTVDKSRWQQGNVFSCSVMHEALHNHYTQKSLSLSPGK
light: B1 light
notes: Variant of PR003264; Human IgG1 with LALA mutation in Fc
B3: PR003260 (antibody, human IgG1, kappa, V domains shown)
VH: QVQLVESGGGVVQPGRSLRLPCAASGFTFSRYGMHWVRQAPGKGLEWVADIWYDGSKKYYADSVKGRFTISRDNSKNTLYLQMNSLRAEDTAVYFCTRDGGYSYGPFDYWGQGTLVTVSS
VL: EIVMTQSPATLSVSPGERATLSCRASQSVSSNLAWYQQKPGQAPRLLIYYASTRAPGIPARFSGSESGTEFTLTISSLQSEDFAVYYCQQYNIWPYTFGQGTKLEIKR
notes: Human IgG1; also called 70F3B1
B4: PR003263 (antibody, human IgG1, kappa, V domains shown)
VH: QVQLVESGGGVVQPGRSLRLSCAASGFTFSYYGLNWVRQAPGKGLEWVAVIWFDGTNKYYADSVKGRFTISRDDSKNTLYLQMNSLRAEDTAVYYCARGYGSGSYYNYVMDAWGQGASVTVSS
VL: B3 VL with Y50G, R54G, P56T, E66G, E70D, N92Y, I93K, Y96L, Q100G, L104V
notes: Human IgG1; also called 77E6C4
B5: PR003251 (antibody, human IgG1, kappa, V domains shown)
VH: QVQLVESGGGVVQPGRSLRLSCAVSGFTFSRYGMHWVRQAPGKGLDWVAVIWYNGNNKYYTDSVKGRFTISRDNSKNTLFLQMNSLRAEDTAVYYCARDGAYSYGPFDYWGQGTLVTVSS
VL: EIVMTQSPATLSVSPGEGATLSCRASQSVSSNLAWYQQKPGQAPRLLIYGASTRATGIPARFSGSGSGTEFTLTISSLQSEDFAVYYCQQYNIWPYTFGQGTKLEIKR
notes: Human IgG1; also called 29F2C8
B6: PR003254 (antibody, human IgG1, kappa, V domains shown)
VH: B3 VH with P21S, R31S, D54N, S56N, K57N, V93L, F95Y, T97A
VL: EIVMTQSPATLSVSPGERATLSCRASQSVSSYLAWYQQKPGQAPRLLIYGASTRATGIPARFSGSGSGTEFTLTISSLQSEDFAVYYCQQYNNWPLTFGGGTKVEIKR
notes: Human IgG1; also called 59D6D2
B7: PR003262 (antibody, human IgG1, kappa, V domains shown)
VH: B5 VH with V24A, M34I, D46E, N56R, T61V, F80Y, A101G
VL: B3 VL with V29F, S31N, Y50G, P56T, E66G, Q89H, Y96L, Q100G, L104V
notes: Human IgG1; also called 77D5A4

For one test, the target named is T1, human B7-H7 on the cell surface. The test is described as follows: flow cytometry, LS180 cells. How it is done: (§1) This example was intended to study the in vitro activity of H2L2 monoclonal antibodies against human B7-H7 in binding to human/cynomolgus monkey B7-H7. Since homologous molecules of B7-H7 were not present in mice, the detection was not performed. […] The cells were adjusted to a cell density of 1×10⁶ cells/mL, respectively. The cells were seeded in a 96-well V-bottom plate (Corning, #3894) at 100 μL/well, and the antibody to be tested at 2× final concentration with 3-fold concentration gradient dilution was then added at 100 μL/well. The cells were incubated at 4° C. for 2 hours in the dark. After the incubation, the cells were rinsed twice by adding pre-chilled PBS containing 2% BSA at 100 μl/well, and centrifuged at 500 g at 4° C. for 5 minutes, and the supernatant was discarded. […] The cells were washed twice by adding pre-chilled PBS containing 2% BSA at 100 μL/well, and centrifuged at 500 g at 4° C. for 5 minutes, and the supernatant was discarded. Finally, the cells were resuspended in pre-chilled PBS containing 2% BSA at 200 μL/well, and the fluorescence signal values were read using an ACEA Novocyte3000 flow cytometer.
In the case of B1, the EC50 was 2.2 nM and the “Maximum MFI” value is 21800 MFI.
For B2, in that order: 3.08 nM and 24000 MFI.

Another test has the same target. The test can be described thus: flow cytometry, HEK-293/hu B7-H7 cells. On the procedure: as §1
As to B1, the EC50 amounted to 1.68 nM and the “Maximum MFI” value came to 756000 MFI.
For B3, the EC50 is 1.13 nM and the “Maximum MFI” value amounted to 807000 MFI.
Regarding B4, the EC50 came to 1.06 nM and the “Maximum MFI” value is 763000 MFI.
For B5, the EC50 was found to be 1.07 nM and the “Maximum MFI” value turned out to be 813000 MFI.
Taken in the same sequence, the figures for B6 were 1.95 nM and 762000 MFI.
Taken in the same sequence, the figures for B7 were 1.33 nM and 822000 MFI.

A further test addresses T2, human B7-H7 recombinant protein. The test is described as follows: BLI (Octet), antibody captured on AHC sensor, human B7-H7 in solution, 1:1 global fit. The essentials:
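Anti-B7-H7 antibodies captured on anti-human Fc sensors to 0.7 nm, then exposed to human B7-H7 at 50-3.125 nM (2-fold series) for 180 s association, 300 s dissociation. Reference-subtracted against 0 nM; kon, kdis and KD from 1:1 global fit.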
In the case of B1, the Kd amounted to 2.94 nM, the koff worked out at 0.000115 s⁻¹ and the kon is 39000 M⁻¹ s⁻¹.
For B3, the Kd came to 1.68 nM, the koff was 0.000102 s⁻¹ and the kon was found to be 61100 M⁻¹ s⁻¹.
Taken in the same sequence, the figures for B4 were 5.44 nM, 0.000441 s⁻¹ and 81100 M⁻¹ s⁻¹.
Taken in the same sequence, the figures for B5 were 6.7 nM, 0.000632 s⁻¹ and 94300 M⁻¹ s⁻¹.
Turning to B6, the Kd stood at 32.3 nM, the koff came to 0.00245 s⁻¹ and the kon came out at 75600 M⁻¹ s⁻¹.
As for B7, the Kd was determined as 1.55 nM, the koff turned out to be 0.000117 s⁻¹ and the kon is 75500 M⁻¹ s⁻¹.

The next test has as its target T3, biotinylated human B7-H7 protein (Acro …). The test is described as follows: BLI epitope competition on SA-captured biotinylated B7-H7; competitor (first antibody) PR003249.
With B1, the “Competitive inhibition rate (%)” value was determined as 109%.
Take B3: the “Competitive inhibition rate (%)” value is -3.18%.
With B4, the “Competitive inhibition rate (%)” value is -0.324%.
For the molecule B5, the “Competitive inhibition rate (%)” value was -6.54%.
Still for that read-out and setting: the figure for B6 is -5.96%; for B7 it is -2.6%.

A further test shares this target. The test is described as follows: BLI epitope competition on SA-captured biotinylated B7-H7; competitor (first antibody) PR003251. On the procedure: Epitope competition experiments were performed on the anti-B7-H7 antibodies using the ForteBio Octet Red96e platform with the same experimental buffer as described above. […] After being equilibrated in a buffer for 120 s, the sensors were immersed in various antibodies diluted to 100 nM for 240 s, and the final signal of the antibody binding to B7-H7 was recorded as the 100% signal for that antibody. Second step, epitope competition experiment: B7-H7 was captured using SA sensors at a capture height of 0.25 nm. The sensors were immersed in a first antibody (concentration: 100 nM) for 240 s, then the SA sensors were immersed in a mixture of the first antibody and a second antibody (final concentration of both antibodies: 100 nM) for 240 s, and the difference in signals before and after immersing the sensors in the mixture of the two antibodies was recorded as the signal for that antibody as the second antibody. The inhibition rate was calculated by the following equation, […]
On to B3, for which the “Competitive inhibition rate (%)” value was determined as 100%.
The same measure, in the same setting: the figure for B4 is 96.9%; for B5 it is 97.9%.
As to B6, the “Competitive inhibition rate (%)” value is 99.1%.
The same measure, in the same setting: the figure for B7 is 96.4%.

The values are drawn from patent US20250136696A1 (HARBOUR BIOMED SHANGHAI, published 2025).
